Measured values taken from patent US20110165592A1 (HOFFMAN LA ROCHE, published 2011).

Tests used:
human EPO receptor = molecular target: T1, human EPO receptor (human, UniProt P19235 25-508); assay: Western blot of lysates of HELAwt, HELA-EPOR and UT-7 cells
T1 construct: whole, on cells; In the Western blots the receptor stood in lysates of HeLa-EPOR (recombinant) and UT-7 cells; band of about 60 kDa; also called human erythropoietin receptor
T1 sequence (looked up): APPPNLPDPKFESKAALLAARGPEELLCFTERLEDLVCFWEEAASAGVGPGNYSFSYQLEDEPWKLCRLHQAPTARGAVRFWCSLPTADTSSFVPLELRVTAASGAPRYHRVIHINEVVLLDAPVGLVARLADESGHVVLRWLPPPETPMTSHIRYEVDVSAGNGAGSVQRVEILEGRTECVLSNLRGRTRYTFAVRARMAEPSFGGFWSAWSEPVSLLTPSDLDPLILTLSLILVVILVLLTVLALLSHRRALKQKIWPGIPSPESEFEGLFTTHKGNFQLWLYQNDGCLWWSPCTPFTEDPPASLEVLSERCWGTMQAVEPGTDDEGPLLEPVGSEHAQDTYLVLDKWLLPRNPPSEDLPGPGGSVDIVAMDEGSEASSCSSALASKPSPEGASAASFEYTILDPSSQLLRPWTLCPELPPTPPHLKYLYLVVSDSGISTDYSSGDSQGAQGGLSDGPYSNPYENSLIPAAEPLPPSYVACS
Procedure: FIG. 2 WB analysis of lysates from HELAwt, HELA-EPOR and UT-7 cells (to show specificity). (a) Specific binding of Mab Cl. […] (b) Specific binding of Mab Cl.
The SDS-PAGE and western blotting were performed according to standard procedures and the NuPAGE® gel system of Invitrogen. The extracts corresponding to different number of cells were loaded in each line of a NuPAGE® Novex® 4-12% Bis-Tris gel. The proteins were then transferred onto PVDF membranes and incubated with the respective antibodies overnight at 4° C. After washing, the membranes were incubated with a conjugate anti-mouse or anti-rabbit IgG-POD and developed using ECL reagents (Lumi-Light^PLus western blotting substrate, Roche Diagnostics GmbH): Results are shown in FIG. 2.

[1] = molecular target: T2, biotinylated peptide 382-402 (corresponding to the mature EPOR) (human, biotinylated (site not stated)); assay: Biacore 3000 SPR, 25 C, antibody on immobilized biotinylated peptide (avidity)
T2 construct: Range counted on mature human EPOR (aa406-426 of the precursor); also called EPOR peptide 382-402
T2 peptide: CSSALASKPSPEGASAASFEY
Procedure: Measurements were made on a BIACORE™ 3000 at 25° C. in HBS-EP-Buffer, pH 7.4 (10 mM HEPES, 150 mM NaCl, 3.4 mM EDTA, 0.005% polysorbate 20 (w/v). 1.0 mg/ml CMD was added to reduce unspecific binding. Results are shown in Table 1.

B1: Mab Cl. 21.3.1 (antibody, V domains shown)
VH: AVQVVESGGDLVKPGGSLQLSCAASGFTFSSYAMSWARQTPEKRLEWVATISGRGTYTYYPDSVKGRFTISRDNAKNILYLQMSSLRSEDTAMYYCTPRLFAYWGQGTLVTVSA
VL: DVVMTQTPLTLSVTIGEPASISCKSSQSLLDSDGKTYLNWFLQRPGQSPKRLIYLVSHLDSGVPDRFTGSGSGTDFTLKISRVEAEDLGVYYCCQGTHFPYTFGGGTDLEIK
binding result (human EPO receptor): binds

B2: Mab Cl. 19.1.2 (antibody, V domains shown)
VH: QVQLQQSGAELVRPGSSVKISCKASGYTFSRYWMNWVKQRPGQGLEWIGQIYPGDGDTNYIGDFKGKATLTADKSSSIAYMQLSSLTSEDSAVYFCARLMVPTYGLDYWGQGTSVTVSS
VL: DIVMSQSPSSLAVSAGEKVTMSCKSSQSLLNSRTRKNYLAWYQQKPGQSPKLLIYWASTRESGVPDRFTGSGSGTDFTLTIYSVQAEDLAVYYCKESYILPYTLGGGTKLEIK
notes: Mouse (Balb/c) monoclonal raised against peptide 382-402
Ka [1]: 1.1e+09 M⁻¹ | Kd [1]: 1 nM | koff [1]: 0.0021 s⁻¹ | kon [1]: 1.9e+06 M⁻¹ s⁻¹ | binding result (human EPO receptor): binds
